B1: SEQ ID NO 8: Chromobacterium violaceum ω-transaminase (Genbank Accession No. AAQ59697.1) (protein, listed as Chromobacterium violaceum)
chain: MQKQRTTSQWRELDAAHHLHPFTDTASLNQAGARVMTRGEGVYLWDSEGNKIIDGMAGLWCVNVGYGRKDFAEAARRQMEELPFYNTFFKTTHPAVVELSSLLAEVTPAGFDRVFYTNSGSESVDTMIRMVRRYWDVQGKPEKKTLIGRWNGYHGSTIGGASLGGMKYMHEQGDLPIPGMAHIEQPWWYKHGKDMTPDEFGVVAARWLEEKILEIGADKVAAFVGEPIQGAGGVIVPPATYWPEIERICRKYDVLLVADEVICGFGRTGEWFGHQHFGFQPDLFTAAKGLSSGYLPIGAVFVGKRVAEGLIAGGDFNHGFTYSGHPVCAAVAHANVAALRDEGIVQRVKDDIGPYMQKRWRETFSRFEHVDDVRGVGMVQAFTLVKNKAKRELFPDFGEIGTLCRDIFFRNNLIMRACGDHIVSAPPLVMTRAEVDEMLAVAERCLEEFEQTLKARGLA
B2: SEQ ID NO 10: Pseudomonas syringae ω-transaminase (Genbank Accession No. AAY39893.1) (protein, listed as Pseudomonas syringae)
chain: MSANNPQTLEWQALSSEHHLAPFSDYKQLKEKGPRIITRAEGVYLWDSEGNKILDGMSGLWCVAIGYGREELADAASKQMRELPYYNLFFQTAHPPVLELAKAISDIAPEGMNHVFFTGSGSEGNDTMLRMVRHYWALKGQPNKKTIISRVNGYHGSTVAGASLGGMTYMHEQGDLPIPGVVHIPQPYWFGEGGDMTPDEFGIWAAEQLEKKILELGVENVGAFIAEPIQGAGGVIVPPDSYWPKIKEILSRYDILFAADEVICGFGRTSEWFGSDFYGLRPDMMTIAKGLTSGYVPMGGLIVRDEIVAVLNEGGDFNHGFTYSGHPVAAAVALENIRILREEKIVERVRSETAPYLQKRLRELSDHPLVGEVRGVGLLGAIELVKDKTTRERYTDKGAGMICRTFCFDNGLIMRAVGDTMIIAPPLVISFAQIDELVEKARTCLDLTLAVLQG
B3: SEQ ID NO 13: Vibrio fluvialis ω-transaminase (Genbank Accession No. AEA39183.1) (protein, listed as Vibrio fluvialis)
chain: MNKPQSWEARAETYSLYGFTDMPSLHQRGTVVVTHGEGPYIVDVNGRRYLDANSGLWNMVAGFDHKGLIDAAKAQYERFPGYHAFFGRMSDQTVMLSEKLVEVSPFDSGRVFYTNSGSEANDTMVKMLWFLHAAEGKPQKRKILTRWNAYHGVTAVSASMTGKPYNSVFGLPLPGFVHLTCPHYWRYGEEGETEEQFVARLARELEETIQREGADTIAGFFAEPVMGAGGVIPPAKGYFQAILPILRKYDIPVISDEVICGFGRTGNTWGCVTYDFTPDAIISSKNLTAGFFPMGAVILGPELSKRLETAIEAIEEFPHGFTASGHPVGCAIALKAIDVVMNEGLAENVRRLAPRFEERLKHIAERPNIGEYRGIGFMWALEAVKDKASKTPFDGNLSVSERIANTCTDLGLICRPLGQSVVLCPPFILTEAQMDEMFDKLEKALDKVFAEVA
B4: SEQ ID NO 3: Mycobacterium smegmatis carboxylate reductase (Genbank Accession No. ABK71854.1) (protein, listed as Mycobacterium smegmatis)
chain: MTSDVHDATDGVTETALDDEQSTRRIAELYATDPEFAAAAPLPAVVDAAHKPGLRLAEILQTLFTGYGDRPALGYRARELATDEGGRTVTRLLPRFDTLTYAQVWSRVQAVAAALRHNFAQPIYPGDAVATIGFASPDYLTLDLVCAYLGLVSVPLQHNAPVSRLAPILAEVEPRILTVSAEYLDLAVESVRDVNSVSQLVVFDHHPEVDDHRDALARAREQLAGKGIAVTTLDAIADEGAGLPAEPIYTADHDQRLAMILYTSGSTGAPKGAMYTEAMVARLWTMSFITGDPTPVINVNFMPLNHLGGRIPISTAVQNGGTSYFVPESDMSTLFEDLALVRPTELGLVPRVADMLYQHHLATVDRLVTQGADELTAEKQAGAELREQVLGGRVITGFVSTAPLAAEMRAFLDITLGAHIVDGYGLTETGAVTRDGVIVRPPVIDYKLIDVPELGYFSTDKPYPRGELLVRSQTLTPGYYKRPEVTASVFDRDGYYHTGDVMAETAPDHLVYVDRRNNVLKLAQGEFVAVANLEAVFSGAALVRQIFVYGNSERSFLLAVVVPTPEALEQYDPAALKAALADSLQRTARDAELQSYEVPADFIVETEPFSAANGLLSGVGKLLRPNLKDRYGQRLEQMYADIAATQANQLRELRRAAATQPVIDTLTQAAATILGTGSEVASDAHFTDLGGDSLSALTLSNLLSDFFGFEVPVGTIVNPATNLAQLAQHIEAQRTAGDRRPSFTTVHGADATEIRASELTLDKFIDAETLRAAPGLPKVTTEPRTVLLSGANGWLGRFLTLQWLERLAPVGGTLITIVRGRDDAAARARLTQAYDTDPELSRRFAELADRHLRVVAGDIGDPNLGLTPEIWHRLAAEVDLVVHPAALVNHVLPYRQLFGPNVVGTAEVIKLALTERIKPVTYLSTVSVAMGIPDFEEDGDIRTVSPVRPLDGGYANGYGNSKWAGEVLLREAHDLCGLPVATFRSDMILAHPRYRGQVNVPDMFTRLLLSLLITGVAPRSFYIGDGERPRAHYPGLTVDFVAEAVTTLGAQQREGYVSYDVMNPHDDGISLDVFVDWLIRAGHPIDRVDDYDDWVRRFETALTALPEKRRAQTVLPLLHAFRAPQAPLRGAPEPTEVFHAAVRTAKVGPGDIPHLDEALIDKYIRDLREFGLI

Key:
Assay type in all cases: biochemical
[1] = ω-transaminase activity assay, 7-aminoheptanol to 7-oxoheptanol; settings: for substrate acceptance, formation of L-alanine by RP-HPLC: 10 mM 7-aminoheptanol, 10 mM pyruvate, cell free extract, 25° C., 4 h, against empty vector control (FIG. 19); for acceptance of 7-oxoheptanol, forming 7-aminoheptanol, concluded from reversibility: concluded from the reverse direction assay and Example 2
Description: A nucleotide sequence encoding an N-terminal His-tag was added to the Chromobacterium violaceum, Pseudomonas syringae and Rhodobacter sphaeroides genes encoding the ω-transaminases of SEQ ID NOs: 8, 10 and 11, respectively (see FIGS. 7F and 7G) such that N-terminal HIS tagged ω-transaminases could be produced. The modified genes were cloned into a pET21a expression vector under the T7 promoter.
Each expression vector was transformed into a BL21[DE3] E. coli host. Each resulting recombinant E. coli strain were cultivated at 37° C. in a 250 mL shake flask culture containing 50 mL LB media and antibiotic selection pressure, with shaking at 230 rpm. Each culture was induced overnight at 16° C. using 1 mM IPTG.
(§1) The pellet from each induced shake flask culture was harvested via centrifugation. Each pellet was resuspended and lysed via sonication. The cell debris was separated from the supernatant via centrifugation and the cell free extract was used immediately in enzyme activity assays.
(§2) Enzyme activity assays in the reverse direction (i.e., 7-aminoheptanol to 7-oxoheptanol) were performed in a buffer composed of a final concentration of 50 mM HEPES buffer (pH=7.5), 10 mM 7-aminoheptanol, 10 mM pyruvate, and 100 μM pyridoxyl 5′ phosphate. Each enzyme activity assay reaction was initiated by adding cell free extract of the ω-transaminase gene product or the empty vector control to the assay buffer containing the 7-aminoheptanol and then incubated at 25° C. for 4 h, with shaking at 250 rpm. The formation of L-alanine was quantified via RP-HPLC.

[2] = ω-transaminase activity assay, reverse direction, 7-aminoheptanoate to pimelate semialdehyde; settings: 10 mM 7-aminoheptanoate, 10 mM pyruvate, cell free extract, 25° C., 4 h; against empty vector control (FIG. 15)
Description: (§3) A sequence encoding an N-terminal His-tag was added to the genes from Chromobacterium violaceum, Pseudomonas syringae, Rhodobacter sphaeroides, and Vibrio Fluvialis encoding the ω-transaminases of SEQ ID NOs: 8, 10, 11 and 13, respectively (see FIGS. 7F-7G) such that N-terminal HIS tagged ω-transaminases could be produced. Each of the resulting modified genes was cloned into a pET21a expression vector under control of the T7 promoter and each expression vector was transformed into a BL21[DE3] E. coli host. The resulting recombinant E. coli strains were cultivated at 37° C. in a 250 mL shake flask culture containing 50 mL LB media and antibiotic selection pressure, with shaking at 230 rpm. Each culture was induced overnight at 16° C. using 1 mM IPTG.
as §1
as §2, with “7-aminoheptanoate” for “7-aminoheptanol”, “pimelate semialdehyde)” for “7-oxoheptanol)”, “7-aminoheptanoate,” for “7-aminoheptanol,”, “pyruvate” for “pyruvate,”, “and” for “and then”, “L-alanine from pyruvate” for “L-alanine”

[3] = ω-transaminase activity assay, forward direction, pimelate semialdehyde to 7-aminoheptanoate; settings: for substrate acceptance, formation of pyruvate from L-alanine by RP-HPLC: 10 mM pimelate semialdehyde, 10 mM L-alanine, cell free extract, 25° C., 4 h, against empty vector control (FIG. 16); for reversibility of ω-transaminase activity: pimelate semialdehyde accepted, 7-aminoheptanoate synthesized: conclusion from the forward and reverse assays of Example 2
Description: as §3, §1
Enzyme activity in the forward direction (i.e., pimelate semialdehyde to 7-aminoheptanoate) was confirmed for the transaminases of SEQ ID NO 10, SEQ ID NO 11 and SEQ ID NO 13. Enzyme activity assays were performed in a buffer composed of a final concentration of 50 mM HEPES buffer (pH=7.5), 10 mM pimelate semialdehyde, 10 mM L-alanine and 100 μM pyridoxyl 5′ phosphate. Each enzyme activity assay reaction was initiated by adding a cell free extract of the ω-transaminase gene product or the empty vector control to the assay buffer containing the pimelate semialdehyde and incubated at 25° C. for 4 h, with shaking at 250 rpm. The formation of pyruvate was quantified via RP-HPLC.

[4] = Carboxylate reductase activity assay, N7-acetyl-7-aminoheptanoate to N7-acetyl-7-aminoheptanal; settings: 2 mM N7-acetyl-7-aminoheptanoate, 1 mM ATP, 1 mM NADPH, enhanced by sfp gene product, room temperature, 20 min; against empty vector control (FIG. 12)
Description: The activity of each of the N-terminal His-tagged carboxylate reductases of SEQ ID NOs: 3, 6, and 7 (see Examples 4, and FIGS. 7B, 7E, and 7F) for converting N7-acetyl-7-aminoheptanoate to N7-acetyl-7-aminoheptanal was assayed in triplicate in a buffer composed of a final concentration of 50 mM HEPES buffer (pH=7.5), 2 mM N7-acetyl-7-aminoheptanoate, 10 mM MgCl2, 1 mM ATP, and 1 mM NADPH. The assays were initiated by adding purified carboxylate reductase and phosphopantetheine transferase or the empty vector control to the assay buffer containing the N7-acetyl-7-aminoheptanoate then incubated at room temperature for 20 min. The consumption of NADPH was monitored by absorbance at 340 nm.

| Molecule | substrate acceptance, formation of L-alanine by RP-HPLC [1] | acceptance of 7-oxoheptanol, forming 7-aminoheptanol, concluded from reversibility [1] | substrate acceptance, formation of L-alanine from pyruvate by RP-HPLC [2] | substrate acceptance, formation of pyruvate from L-alanine by RP-HPLC [3] | reversibility of ω-transaminase activity: pimelate semialdehyde accepted, 7-aminoheptanoate synthesized [3] | substrate acceptance, consumption of NADPH by absorbance at 340 nm [4] |
| --- | --- | --- | --- | --- | --- | --- |
| SEQ ID NO 11: Rhodobacter sphaeroides ω-transaminase (Genbank Accession No. ABA81135.1) | accepted 7-aminoheptanol as substrate | accept 7-oxoheptanol as substrate and form 7-aminoheptanol | accepted 7-aminoheptanote as substrate | accepted pimelate semialdehyde as substrate | accepted pimelate semialdehyde as substrate and synthesized 7-aminoheptanoate as a reaction product | – |
| B1 | accepted 7-aminoheptanol as substrate | accept 7-oxoheptanol as substrate and form 7-aminoheptanol | accepted 7-aminoheptanote as substrate | – | accepted pimelate semialdehyde as substrate and synthesized 7-aminoheptanoate as a reaction product | – |
| B2 | accepted 7-aminoheptanol as substrate | accept 7-oxoheptanol as substrate and form 7-aminoheptanol | accepted 7-aminoheptanote as substrate | accepted pimelate semialdehyde as substrate | accepted pimelate semialdehyde as substrate and synthesized 7-aminoheptanoate as a reaction product | – |
| B3 | – | – | accepted 7-aminoheptanote as substrate | accepted pimelate semialdehyde as substrate | accepted pimelate semialdehyde as substrate and synthesized 7-aminoheptanoate as a reaction product | – |
| B4 | – | – | – | – | – | accepted N7-acetyl-7-aminoheptanoate as substrate |
